Laboratory results taken from patent publication US20030203415A1 (published 2003).
Where “and” joins values, the source holds several entries; their conditions need not be identical. Equal values may be shown once. Ends that are not written are not given here. fluorescein = fluorescein label attached through NHS-fluorescein to the ε-amino side group of the C-terminal lysine

T1: H6NA3 (UniProt P06731 35-144; P06731 499-590, limits assumed)
T1 construct: domain: N domain;domain: A3 domain; recombinant truncated target
T1 sequence: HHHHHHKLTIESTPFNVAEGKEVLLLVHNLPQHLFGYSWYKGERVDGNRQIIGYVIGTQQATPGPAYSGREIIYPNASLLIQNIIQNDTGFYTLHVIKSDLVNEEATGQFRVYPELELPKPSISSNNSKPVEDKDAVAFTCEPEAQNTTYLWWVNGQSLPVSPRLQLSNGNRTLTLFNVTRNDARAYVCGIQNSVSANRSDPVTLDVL

T2: carcinoembryonic antigen (CEA) (UniProt P06731 35-685, limits assumed)
T2 sequence (looked up): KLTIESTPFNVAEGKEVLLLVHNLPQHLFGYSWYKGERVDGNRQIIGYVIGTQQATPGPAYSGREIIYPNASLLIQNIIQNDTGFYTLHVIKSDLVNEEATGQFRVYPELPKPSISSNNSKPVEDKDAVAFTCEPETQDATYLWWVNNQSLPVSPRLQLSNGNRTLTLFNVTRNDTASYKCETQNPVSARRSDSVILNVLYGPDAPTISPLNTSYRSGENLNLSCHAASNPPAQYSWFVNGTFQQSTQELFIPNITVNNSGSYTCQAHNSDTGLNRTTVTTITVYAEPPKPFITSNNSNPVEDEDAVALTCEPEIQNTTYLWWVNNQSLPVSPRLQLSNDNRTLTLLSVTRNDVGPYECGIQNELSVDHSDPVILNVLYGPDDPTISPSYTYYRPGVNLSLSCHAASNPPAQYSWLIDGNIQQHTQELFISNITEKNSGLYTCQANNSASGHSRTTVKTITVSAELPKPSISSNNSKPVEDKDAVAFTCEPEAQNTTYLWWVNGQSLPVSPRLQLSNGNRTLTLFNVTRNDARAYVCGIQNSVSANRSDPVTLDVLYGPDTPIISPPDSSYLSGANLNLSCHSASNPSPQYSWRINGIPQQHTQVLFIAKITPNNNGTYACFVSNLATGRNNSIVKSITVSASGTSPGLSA

B1: P-E01 (peptide)
peptide: SNWDCMFGAEGWACSPWAPGGEGGGSK(fluorescein)-NH2
modifications: not fully specified (bridges); printed as SNWDCMFGAEGWACSPWAPGGEGGGSK-CONH2; cysteine pairing not given here; also: fluorescein on C-terminal Lys ε-amino in labelled aliquots
notes: synthetic 27-mer
B2: Hybrid H12/A12 (peptide, part only; not given: C-terminal lysine extension, part only)
peptide, part: DWVCEYFKNQWFCDTL
modifications: not fully specified (C-terminus, bridges); cysteine pairing not given here; also: fluorescein on ε-amino of C-terminal lysine, no C-terminal K in given chain
B3: 304A-14-A12 synthetic peptide (peptide, part only; not given: C-terminal lysine extension, part only)
peptide, part: DWVCNLFKNQWFCDTL
modifications: not fully specified (C-terminus, bridges); cysteine pairing not given here; also: fluorescein on ε-amino of C-terminal lysine, no C-terminal K in given chain
B4: 304A-12-H12 synthetic peptide (peptide)
peptide: DWVCEYFKNQWFCNVLAPGGEGGGSK-NH2
modifications: not fully specified (residue 26, bridges); cysteine pairing not given here; also: fluorescein only on labelled aliquots
notes: synthetic; also called DX306
B5: P-G08 (peptide)
peptide: SNWVCNLFKNQWFCNSYAPGGEGGGSK(fluorescein)-NH2
modifications: not fully specified (bridges); printed as SNWVCNLFKNQWFCNSYAPGGEGGGSK-CONH2; cysteine pairing not given here; also: fluorescein on C-terminal Lys ε-amino in labelled aliquots
notes: synthetic 27-mer; also called Isolate G08 peptide
B6: P-B09 (peptide)
peptide: SDWVCELTTGGYVCQPLAPGGEGGGSK(fluorescein)-NH2
modifications: not fully specified (bridges); printed as SDWVCELTTGGYVCQPLAPGGEGGGSK-CONH2; cysteine pairing not given here; also: fluorescein on C-terminal Lys ε-amino in labelled aliquots
notes: synthetic 27-mer
B7: P-A07 (peptide)
peptide: SDWVCENKKDQWTCNLLAPGGEGGGSK(fluorescein)-NH2
modifications: not fully specified (bridges); printed as SDWVCENKKDQWTCNLLAPGGEGGGSK-CONH2; cysteine pairing not given here; also: fluorescein on C-terminal Lys ε-amino in labelled aliquots
notes: synthetic 27-mer
B8: 315A-17-G08 synthetic peptide (peptide)
peptide: DWVCEFIKSQWFCNVLAPGGEGGGSK(fluorescein)-NH2
modifications: not fully specified (bridges); cysteine pairing not given here; also: fluorescein on C-terminal Lys ε-amino in labelled aliquots
notes: synthetic
B9: 315A-17-B12 synthetic peptide (peptide)
peptide: DWVCEWLKPQWYCNSLAPGGEGGGSK(fluorescein)-NH2
modifications: not fully specified (bridges); cysteine pairing not given here; also: fluorescein on C-terminal Lys ε-amino in labelled aliquots
notes: synthetic
B10: 315A-18-E01 synthetic peptide (peptide)
peptide: DWVCEIVKNQWICNPLAPGGEGGGSK(fluorescein)-NH2
modifications: not fully specified (bridges); cysteine pairing not given here; also: fluorescein on C-terminal Lys ε-amino in labelled aliquots
notes: synthetic
B11: 315A-18-E02 synthetic peptide (peptide)
peptide: DWVCEFFKDQWFCNILAPGGEGGGSK(fluorescein)-NH2
modifications: not fully specified (bridges); cysteine pairing not given here; also: fluorescein on C-terminal Lys ε-amino in labelled aliquots
notes: synthetic
B12: 315A-17-B01 synthetic peptide (peptide)
peptide: DWVCEWLKMQWACNILAPGGEGGGSK(fluorescein)-NH2
modifications: not fully specified (bridges); cysteine pairing not given here; also: fluorescein on C-terminal Lys ε-amino in labelled aliquots
notes: synthetic

Each binder was assayed against T1, H6NA3 (assay: fluorescence anisotropy).
Description: (§1) Dissociation constants were determined using fluorescence anisotropy, through direct binding measurements and competition experiments. In direct binding assays, the concentration of the fluorescein-labeled peptide is held constant and the concentration of H6NA3 is varied. In the competition experiment, the concentration of the fluorescein-labeled peptide and the H6NA3 target are held constant and the concentration of a competitor (cT84.66, unlabeled) is varied. The change in anisotropy is fit to the appropriate equation via nonlinear regression to obtain the apparent Kd.

Kd [nM]	Binder
7000	B1

Each binder was assayed against T3, human serum albumin (HSA) (human, UniProt P02768 25-609) (assay: phage ELISA on immobilized HSA).
T3 construct: control target
T3 sequence (P02768 25-609 limits assumed): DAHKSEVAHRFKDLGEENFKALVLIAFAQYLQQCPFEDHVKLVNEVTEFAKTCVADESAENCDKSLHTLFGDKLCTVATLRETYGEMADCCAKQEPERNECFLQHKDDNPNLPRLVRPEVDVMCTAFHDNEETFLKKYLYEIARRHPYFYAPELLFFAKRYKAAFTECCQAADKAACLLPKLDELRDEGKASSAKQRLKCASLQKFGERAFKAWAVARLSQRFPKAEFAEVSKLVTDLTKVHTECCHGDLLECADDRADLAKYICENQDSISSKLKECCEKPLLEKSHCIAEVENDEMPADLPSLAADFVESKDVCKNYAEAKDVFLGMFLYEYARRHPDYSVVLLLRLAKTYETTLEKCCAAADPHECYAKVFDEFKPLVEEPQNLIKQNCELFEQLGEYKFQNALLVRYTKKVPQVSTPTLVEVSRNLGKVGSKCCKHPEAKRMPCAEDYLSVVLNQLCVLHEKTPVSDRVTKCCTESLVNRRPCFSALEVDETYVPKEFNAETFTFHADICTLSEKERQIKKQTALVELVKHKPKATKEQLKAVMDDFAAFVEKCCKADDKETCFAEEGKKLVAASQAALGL

binding result	Binder
no binding	DWVCNFDQGLAHCFPS (not fully specified (bridges); cysteine pairing not given here) [TN10/9-D04]
no binding	NWDCMFGAEGWACSPW (not fully specified (bridges); cysteine pairing not given here) [TN10/9-E01]
no binding	RYCEFFPWSLHCGRP (also called TN10/9 Isolate B10) [B10]
no binding	DWVCENKKDQWTCNLL (not fully specified (bridges); cysteine pairing not given here, also called TN10/9 Isolate A07) [AB-A07]
no binding	NWVCNLFKNQWFCNSY (also called TN10/9 Isolate G08) [FX-G08]
no binding	NWFCEMIGRQWGCVPS [TN10/9-F11]
no binding	NWRCKLFPRYPYCSSW (also called TN10/9 Isolate G01) [G01]

Each binder was assayed against T1, H6NA3 (assay: fluorescence anisotropy, direct binding).

Kd [nM]	Binder
2800	B2
640	B3

Biological target: T1, H6NA3
Experiment: fluorescence anisotropy, direct binding
Remark: another data set of the same source

fold increase in affinity compared to the Isolate G08 peptide [fold]	Binder
8	B4

Biological target: T1, H6NA3
Experiment: fluorescence anisotropy, direct binding
Remark: another data set of the same source
Description: as §1

Kd [nM]	Binder
6900	B1
1900	B5
6000	B6
5900	B7

Biological target: T1, H6NA3
Experiment: fluorescence anisotropy, direct binding
Remark: another data set of the same source
Description: as §1
Dissociation constants were determined using fluorescence anisotropy, through direct binding measurements (see Example 6).

Kd [nM]	Binder
240	B4

Biological target: T1, H6NA3
Experiment: fluorescence anisotropy, direct binding
Remark: another data set of the same source
Description: (§2) Dissociation constants were determined using fluorescence anisotropy, through direct binding measurements to either NA-3 or CEA in PBS with 0.01% TWEEN 20. In direct binding assays, the concentration of the fluorescein-labeled peptide is held constant and the concentration of NA3 is varied. In the competition experiment, the concentration of the fluorescein-labeled peptide and the NA3 target are held constant and the concentration of competitor peptide (from Isolate 12-H12) is varied. The change in anisotropy is fit to the appropriate equation via nonlinear regression to obtain the apparent Kd. […] Replicate analyses were run for certain binders and are reported to confirm accuracy and precision of measurements. KD standard error values are calculated from the nonlinear regression (SIGMAPLOT, SPSS Science, Chicago, Ill.).

Kd [nM]	Binder
270	B8
300	B4
1800	B9
870	B10
380	B11
950	B12

The binders below were run against T2, carcinoembryonic antigen (CEA) (assay: fluorescence anisotropy, direct binding).
Description: as §2

Kd [nM]	binding result	Binder
1600	–	B8
3700	–	B4
–	no binding	B9
2600	–	B11

These binders were tested against T1, H6NA3 (assay: fluorescence anisotropy, direct binding (replicate)).
Description: as §2

Kd [nM]	Binder
220	B4

Each binder was assayed against T1, H6NA3 (assay: fluorescence anisotropy, competition with unlabeled cT84.66).
Description: as §1

Kd [nM]	Binder
5300	B1
1000	B6
3600	B7

The binders below were run against T1, H6NA3 (assay: fluorescence anisotropy, competition with peptide from Isolate 12-H12).
Description: as §2

Kd [nM]	Binder
160	B8
340	B4
650	B9
230	B10
310	B11
900	B12

These binders were tested against T1, H6NA3 (assay: fluorescence anisotropy, competition with peptide from Isolate 12-H12 (replicate)).
Description: as §2

Kd	Binder
160 nM	B8
240 nM	B4
490 nM and 170 nM	B10
290 nM and 220 nM and 140 nM	B11
1200 nM	B12
